Test results from publication PMC11480844 (2024).

B1: H2-Kb / Ed21 (parent complex)
chain 1: AQSVTQPDARVTVSEGASLQLRCKYSYFGTPYLFWYVQYPRQGLQLLLKYYPGDPVVQGVNGFEAEFSKSNSSFHLRKASVHWSDWAVYFCAVSMSGGYKVVFGSGTRLLVSP
chain 2: DSGVVQSPRHIIKEKGGRSVLTCIPISGHSNVVWYQQTLGKELKFLIQHYEKVERDKGFLPSRFSVQQFDDYHSEMNMSALELEDSAMYFCASSPRQTDYTFGSGTRLLVI
chain 3: not shown
chain 4: IQKTPQIQVYSRHPPENGKPNILNCYVTQFHPPHIEIQMLKNGKKIPKVEMSDMSFSKDWSFYILAHTEFTPTETDTYACRVKHDSMAEPKTVYWDRDM
chain 5: SIINFEKL
B2: H2-Kb / Ed5 (parent complex)
chain 1: GDSVTQTEGPVTVSESESLIINCTYSATSIAYPNLFWYVRYPGEGLQLLLKVITAGQKGSSRGFEATYNKETTSFHLQKASVQESDSAVYYCALGSYNQGKLIFGQGTKLSIKP
chain 2: DTTVKQNPRYKLARVGKPVNLICSQTMNHDTMYWYQKKPNQAPKLLLFYYDKILNREADTFEKFQSSRPNNSFCSLYIGSAGLEYSAMYLCASSRRLGASQNTLYFGAGTRLSVL
chain 3: not shown
chain 4: B1 chain 4
chain 5: SIINFEKL

Variants of: B1
Assay: % of reporter cells activated (NFAT-GFP), raw
Further: test concentration or dose not given here.

Variant	ratio to parent
chain 5 F5M	0.981
chain 5 F5P	1.03
chain 5 F5C	1.04
chain 5 F5Y	1.05
chain 5 F5H	0.947
chain 5 F5G	0.873
chain 5 F5W	0.866
chain 5 I3C	0.989
chain 5 I3H	1
chain 5 I3W	0.869
chain 5 I3R	0.775
chain 5 I3E	0.924
chain 5 I3M	0.99
chain 5 I3V	0.872
chain 5 I3D	0.575
chain 5 I3Q	0.902
chain 5 I3A	0.872
chain 5 I3N	0.961
chain 5 I3F	0.869
chain 5 I3S	0.901
chain 5 E6M	0.593
chain 5 E6P	0.554

Variant	ratio to parent
chain 5 E6H	0.59
chain 5 E6L	0.329
chain 5 E6R	0.936
chain 5 E6C	0.0832
chain 5 S1Y	0.97
chain 5 S1L	0.793
chain 5 S1W	0.616
chain 5 S1D	0.911
chain 5 S1Q	0.983
chain 5 S1K	0.664
chain 5 S1I	0.745
chain 5 S1F	0.805
chain 5 S1M	0.954
chain 5 S1H	0.979
chain 5 L8N	0.888
chain 5 L8C	0.882
chain 5 L8V	0.686
chain 5 L8Q	0.894
chain 5 L8S	0.78
chain 5 L8D	0.785
chain 5 L8T	0.783
chain 5 L8W	0.734

Variant	ratio to parent
chain 5 I2W	0.861
chain 5 I2D	0.924
chain 5 I2E	0.964
chain 5 I2N	1.01
chain 5 I2G	1
chain 5 I2L	1.02
chain 5 I2M	0.976
chain 5 I2P	0.975
chain 5 K7F	0.261
chain 5 K7Y	0.745
chain 5 K7C	0.374
chain 5 K7M	0.418
chain 5 K7Q	0.568
chain 5 N4R	0.476
chain 5 N4C	0.162
chain 5 N4Y	0.0148
chain 5 N4Q	0.015
chain 5 N4P	0.0248
chain 5 N4D	0.487
chain 5 N4H	0.47
chain 5 N4A	0.498

Results, then the variant that gave them:

ratio to parent	Variant
0.958	chain 5 F5R
1.05	chain 5 F5L
0.905	chain 5 F5D
0.964	chain 5 F5T
0.856	chain 5 F5E
1.05	chain 5 F5A
0.909	chain 5 F5V
0.952	chain 5 F5K
0.939	chain 5 F5Q
0.927	chain 5 I3P
1.03	chain 5 I3L
0.636	chain 5 I3G
0.851	chain 5 I3K
0.952	chain 5 I3T
0.966	chain 5 I3Y
0.226	chain 5 E6F
0.845	chain 5 E6A
0.949	chain 5 E6K
0.0831	chain 5 E6W
0.884	chain 5 E6N
0.785	chain 5 E6G
0.46	chain 5 E6T
0.964	chain 5 E6D
0.366	chain 5 E6Y
0.641	chain 5 E6S
0.0493	chain 5 E6I

ratio to parent	Variant
0.808	chain 5 S1P
0.785	chain 5 S1R
0.93	chain 5 S1E
0.724	chain 5 S1N
0.9	chain 5 S1V
0.933	chain 5 S1G
0.604	chain 5 S1C
1.02	chain 5 S1A
1.03	chain 5 L8H
0.997	chain 5 L8R
0.859	chain 5 L8I
0.826	chain 5 L8F
0.819	chain 5 L8A
0.996	chain 5 L8P
0.685	chain 5 L8E
0.976	chain 5 L8Y
0.901	chain 5 L8K
0.887	chain 5 L8M
0.814	chain 5 I2Y
1.01	chain 5 I2T
0.906	chain 5 I2K
1.01	chain 5 I2S
0.926	chain 5 I2H
1.04	chain 5 I2A
0.916	chain 5 I2R
0.904	chain 5 I2Q

ratio to parent	Variant
0.951	chain 5 I2F
0.995	chain 5 I2C
0.717	chain 5 K7W
0.752	chain 5 K7T
1.02	chain 5 K7R
0.667	chain 5 K7P
0.141	chain 5 K7D
0.799	chain 5 K7I
0.605	chain 5 K7G
0.785	chain 5 K7S
0.645	chain 5 K7A
0.997	chain 5 K7H
0.785	chain 5 K7L
0.0818	chain 5 K7E
0.788	chain 5 K7V
0.165	chain 5 N4T
0.271	chain 5 N4S
0.389	chain 5 N4I
0.189	chain 5 N4E
0.0259	chain 5 N4V
0.017	chain 5 N4W
0.566	chain 5 N4K
0.00791	chain 5 N4M
0.182	chain 5 N4G
0.0275	chain 5 N4F

Variants of: B2
Assay: % of reporter cells activated (NFAT-GFP), raw

Variant	ratio to parent
chain 5 S1A	0.322
chain 5 N4V	0.0109
chain 5 L8F	0.694
chain 5 F5D	0.92

Further lines, results first:

ratio to parent	Variant
0.543	chain 5 K7W
0.648	chain 5 K7Q
0.162	chain 5 I3Q
0.917	chain 5 I2M
